Results taken from paper PMC7744274.
pKd: −log10 of the molar value. “And” between values parts separate entries of the source, which are not always exact repeats. Equal values may be shown once.

Target: SARS-CoV-2 S glycoprotein, prefusion S ectodomain (trimeric SARS-CoV-2 spike) (SARS-CoV-2 | bacteriophage T4) (UniProt P0DTC2)
Test: SPR; Biacore T200; SARS-CoV-2 S (50 ug/ml) captured on Ni2+-loaded NTA chip; ACE2 (His-Tag removed) as analyte, 200 nM to 3.125 nM in triplicate, 50 uL/min, HBS P+ buffer; association 300 s, dissociation 600 s; 1:1 binding model

Substance: WT soluble ACE2 treated with alpha2-3,6,8 sialidase (from UniProt Q9BYF1 18-626) (domain or fragment)
- decrease of KD against WT ACE2: 30 % lower

Substance: soluble ACE2 expressed in the presence of 20 uM kifunensine (Kif ACE2) (from UniProt Q9BYF1 18-626) (domain or fragment)
- increase of KD against WT ACE2: 50%

Substance: soluble recombinant ACE2 ectodomain, un-engineered (wild-type form, WT) (from UniProt Q9BYF1 18-626) (domain or fragment)
- pKd: 7.00 to 7.30 and 7.12
